Source: patent US20220340642A1 (Kyowa Kirin, published 2022)
Substitutions are numbered along the chain they refer to. Names may count otherwise.

What was measured:
[1] = biological target: T1, soluble recombinant of human FasL (His6, Pro134-Leu281) (UniProt P48023 134-281); assay: BIAcore SPR
T1 chain: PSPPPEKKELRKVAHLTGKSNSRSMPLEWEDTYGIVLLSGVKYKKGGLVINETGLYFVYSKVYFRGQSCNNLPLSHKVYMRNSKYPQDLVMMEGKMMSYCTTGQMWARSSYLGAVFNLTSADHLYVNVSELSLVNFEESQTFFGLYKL
Method in brief: (§1)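 Binding of each test molecule to soluble recombinant His-tagged human or cynomolgus monkey LIGHT, TL1A or FasL was analysed by surface plasmon resonance. Measurements used a BIAcore T-100 or T-200 instrument (GE Healthcare) in HBS-EP+ Buffer. The dissociation constant (Kd, nM) was derived from these measurements.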

[2] = biological target: T2, soluble recombinant of human TL1A (His6, GS linker, Leu72-Leu251) (UniProt O95150 72-251); assay: BIAcore SPR
T2 chain: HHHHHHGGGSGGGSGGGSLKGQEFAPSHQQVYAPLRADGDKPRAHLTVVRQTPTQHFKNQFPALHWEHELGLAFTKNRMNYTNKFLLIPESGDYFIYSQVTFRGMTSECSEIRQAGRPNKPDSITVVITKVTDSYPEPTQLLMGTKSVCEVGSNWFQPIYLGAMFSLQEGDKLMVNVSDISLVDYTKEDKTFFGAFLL
Method in brief: as §1

[3] = biological target: T3, membrane-bound human FasL (Met and FLAG tag at the N-terminus) on CHO-K1 cells (human, UniProt P48023 2-281); assay: flow cytometry on expressing cells
T3 construct: also called FasL/CHO
T3 sequence: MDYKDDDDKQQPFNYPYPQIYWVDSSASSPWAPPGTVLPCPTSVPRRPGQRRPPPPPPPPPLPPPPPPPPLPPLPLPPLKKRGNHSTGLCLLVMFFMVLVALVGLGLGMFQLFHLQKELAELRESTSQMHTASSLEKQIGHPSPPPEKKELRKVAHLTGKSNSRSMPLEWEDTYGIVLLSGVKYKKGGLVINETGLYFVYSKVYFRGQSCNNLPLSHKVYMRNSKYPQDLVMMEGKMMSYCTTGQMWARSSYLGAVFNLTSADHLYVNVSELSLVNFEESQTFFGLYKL
Method in brief: (§2)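 Binding was measured by flow cytometry on HEK293 cells forced to express membrane-bound LIGHT and on cell lines expressing N-terminally Met/FLAG-tagged TL1A or FasL from a CMV-promoter pClpuro vector. Cells at 1×10⁵ cells/well received 1 or 10 μg/mL protein on ice for 1 hour. After washing, cells were stained on ice for 1 hour with LIVE/DEAD Fixable Aqua and R-phycoerythrin goat F(ab′)₂ anti-human IgG (10 ng/mL, 0.1 or 1 μg/mL). Fluorescence was read on a FACS Fortessa.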

[4] = biological target: T4, membrane-bound human LIGHT (human, UniProt O43557 1-240); assay: flow cytometry on expressing cells
T4 construct: whole, on cells; also called LIGHT/HEK293
T4 sequence (O43557 whole entry): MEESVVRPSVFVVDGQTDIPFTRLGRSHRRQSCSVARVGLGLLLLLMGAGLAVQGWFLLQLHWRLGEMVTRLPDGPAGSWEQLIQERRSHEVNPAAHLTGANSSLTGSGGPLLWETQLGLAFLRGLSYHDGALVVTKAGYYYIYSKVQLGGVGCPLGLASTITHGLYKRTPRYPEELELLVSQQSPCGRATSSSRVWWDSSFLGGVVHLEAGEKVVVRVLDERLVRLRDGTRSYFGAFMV
Method in brief: as §2

[5] = biological target: T5, membrane-bound human TL1A (Met and FLAG tag at the N-terminus) on CHO-K1 cells (human, UniProt O95150 2-251); assay: flow cytometry on expressing cells
T5 construct: also called TL1A/CHO
T5 sequence: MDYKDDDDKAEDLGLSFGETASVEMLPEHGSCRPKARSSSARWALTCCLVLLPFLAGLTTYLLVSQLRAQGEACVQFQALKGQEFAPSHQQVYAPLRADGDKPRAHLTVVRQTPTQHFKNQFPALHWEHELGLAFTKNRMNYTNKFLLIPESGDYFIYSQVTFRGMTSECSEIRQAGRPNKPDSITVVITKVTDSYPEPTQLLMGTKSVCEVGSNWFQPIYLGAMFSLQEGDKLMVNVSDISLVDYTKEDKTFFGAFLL
Method in brief: as §2

[6] = biological target: primary soluble LIGHT produced from activated human T cells (human, UniProt O43557 83-240, limits assumed); assay: sandwich ELISA, binder captured
primary soluble LIGHT produced from activated human T cells, sequence (O43557 83-240 limits assumed): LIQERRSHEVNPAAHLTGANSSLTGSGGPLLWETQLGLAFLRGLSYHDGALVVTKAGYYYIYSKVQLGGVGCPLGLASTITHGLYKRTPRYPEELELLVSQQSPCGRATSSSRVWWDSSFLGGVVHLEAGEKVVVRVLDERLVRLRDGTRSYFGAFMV
Experimental: (§3) Then, 10 μg/mL of anti-human IgG antibodies (American Qualex International, Inc.) were immobilized to a 96-well immunoplate (Thermo Scientific), and blocking was performed with 2% Block Ace (DS Pharma Biomedical Co., Ltd.), and then 2 μg/mL of chimera A-Fc, E57K-Fc and 45-18-Fc (in all of which Fc is Eg1S YTE or Eg1S […]) were captured. The culture supernatant of human T cells stimulated for LIGHT production was concentrated 6-fold using Amicon Ultra-15 having a molecular weight cutoff of 3 kDa (Merck Millipore) prerinsed with sterile water. After the plate was washed, the 6-fold concentrated culture supernatant was reacted. As a standard of LIGHT, the soluble recombinant FLAG-LIGHT trimer produced in Example 13 was used. After the plate was washed, a biotinylated anti-LIGHT antibody (R&D Systems, Inc.) was reacted. After the plate was washed, streptavidin-HRP (PIERCE) was reacted. After washing again, a TMB solution (Dako) was added to develop a color. Then, a 2 N sulfuric acid solution was used to stop the chromogenic reaction, and the absorbance at 450 nm (reference wavelength of 570 nm) was measured.
(§4) Sandwich ELISA was performed by the same method as in (1). On a 96-well immunoplate, chimera A-Fc, E57K-Fc and 45-18-Fc (in all of which Fc is Eg1S YTE or Eg1S […]) or the anti-human TL1A antibody produced in Example 16 was captured. Then, with the plate, a 4-fold concentrated culture supernatant of PBMCs stimulated for TL1A production or as a standard, the soluble recombinant His6-TL1A trimer produced in Example 13 was reacted, followed by detection with a biotinylated anti-TL1A antibody (R&D Systems, Inc.).
(§5) Sandwich ELISA was performed by the same method as in (1). On a 96-well immunoplate, chimera A-Fc, E57K-Fc and 45-18-Fc (each including Eg1S YTE or Eg1S […] as an Fc) or Fas-Fc (R&D Systems, Inc.) was captured, and then a 6-fold concentrated culture supernatant of human T cells stimulated for AICD or as a standard, Human His6 Fas Ligand/TNFSF6 (Cell Signaling Technology, Inc.) was reacted, followed by detection with a biotinylated anti-FasL antibody included with Human Fas Ligand ELISA Kit (Abcam plc).

[7] = biological target: T6, primary soluble FasL produced from human T cells stimulated for AICD (human, UniProt P48023 130-281, limits assumed); assay: sandwich ELISA, binder captured
T6 construct: also called soluble FasL derived from human T cells
T6 sequence (looked up): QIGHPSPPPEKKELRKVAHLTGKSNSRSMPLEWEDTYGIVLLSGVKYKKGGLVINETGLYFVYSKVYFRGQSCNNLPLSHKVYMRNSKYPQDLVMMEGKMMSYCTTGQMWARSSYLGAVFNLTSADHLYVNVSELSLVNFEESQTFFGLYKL
Experimental: as §3, §4, §5

B1: chimera A-E57K_R58D-Fc (Eg1S LALAGANA) (Fc fusion)
chain: ETFPPKYLHYDEETSHQLLCDKCPPGTYLKQHCTAKWKTVCAPCPPRHYTQFWNYLKDCRYCNVLCGEREEEARACHATHNRACRCRTGFFAHAGFCLEHASCPPGAGVIAPGTPSQNTQCQPCPDGFFSNETSSKAPCRKHTNCSVFGLLLTQKGNATHDNICSGNSESTQKEPKSSDKTHTCPPCPAPEAAGAPSVFLFPPKPKDTLMISRTPEVTCVVVDVSHEDPEVKFNWYVDGVEVHNAKTKPREEQYNSTYRVVSVLTVLHQDWLNGKEYKCKVSNKALPAPIEKTISKAKGQPREPQVYTLPPSRDELTKNQVSLTCLVKGFYPSDIAVEWESNGQPENNYKTTPPVLDSDGSFFLYSKLTVDKSRWQQGNVFSCSVMHEALHAHYTQKSLSLSPGK
How did the Kd [1] turn out when B1 was run?
The Kd was 4.6 nM.

What about the Kd [2] of the same binder?
Its Kd is 0.2 nM.

Does B1 bind [3]?
Result: binds

Does B1 bind [4]?
Result: binds

Does B1 bind [5]?
Result: binds

B2: chimera A-Fc (Eg1S YTE) (Fc fusion)
chain: B1 chain with K57E, D58R, A192L, A193L, A195G, M210Y, S212T, T214E, A392N
What does the source list for B2?
binding result [6]: binds; binding result [7]: binds; Kd [1]: 1.2 nM; Kd [2]: 0.16 nM; binding result [4]: binds; binding result [5]: binds

B3: chimera A-E57K_R58D-Fc (Eg1S YTE) (Fc fusion)
chain: B1 chain with A192L, A193L, A195G, M210Y, S212T, T214E, A392N
notes: also called 45-10-Fc (Eg1S YTE)
For B3, which Kd [1] is on record?
The Kd was 5.7 nM.

What about the Kd [2] of the same binder?
The Kd was 0.25 nM.

Does B3 bind [3]?
Result: binds

Does B3 bind [4]?
Result: binds

Does B3 bind [5]?
Result: binds

B4: chimera A-E57K_R58E-Fc (Eg1S YTE) (Fc fusion)
chain: B1 chain with D58E, A192L, A193L, A195G, M210Y, S212T, T214E, A392N
notes: also called 45-18-Fc (Eg1S YTE)
Which results are given for B4?
binding result [6]: binds; binding result [7]: binds; Kd [1]: 5.6 nM; Kd [2]: 0.2 nM; binding result [3]: binds; binding result [4]: binds; binding result [5]: binds

B5: chimera A-Fc (Eg1S LALAGANA) (Fc fusion)
chain: B1 chain with K57E, D58R
Does B5 bind [6]?
Result: binds

Does B5 bind [7]?
Result: binds

And the Kd [1]?
The Kd was 0.75 nM.

What about the Kd [2] of the same binder?
The Kd was 0.12 nM.

Does B5 bind [4]?
Result: binds

Does B5 bind [5]?
Result: binds

B6: chimera A-E57V-Fc (Eg1S YTE) (Fc fusion)
chain: B1 chain with K57V, D58R, A192L, A193L, A195G, M210Y, S212T, T214E, A392N
Which Kd [1] does the source give for B6 here?
The Kd was 5.3 nM.

What about the Kd [2] of the same binder?
The Kd was 0.24 nM.

Does B6 bind [3]?
Result: binds

Does B6 bind [4]?
Result: binds

Does B6 bind [5]?
Result: binds

B7: chimera A-E57V-Fc (Eg1S LALAGANA) (Fc fusion)
chain: B1 chain with K57V, D58R
Which Kd [1] does the source give for B7 here?
The Kd was 5.2 nM.

And the Kd [2]?
Its Kd is 0.23 nM.

Does B7 bind [3]?
Result: binds

Does B7 bind [4]?
Result: binds

Does B7 bind [5]?
Result: binds

B8: chimera A-E57K_R58E-Fc (Eg1S LALAGANA) (Fc fusion)
chain: B1 chain with D58E
Does B8 bind [6]?
Result: binds

Does B8 bind [7]?
Result: binds

And the Kd [1]?
Its Kd is 4.6 nM.

What about the Kd [2] of the same binder?
The Kd was 0.16 nM.

Does B8 bind [3]?
Result: binds

Does B8 bind [4]?
Result: binds

Does B8 bind [5]?
Result: binds

B9: chimera A-E57K-Fc (Eg1S LALAGANA) (Fc fusion)
chain: B1 chain with D58R
Does B9 bind [6]?
Result: binds

Does B9 bind [7]?
Result: binds

What about the Kd [1] of the same binder?
The Kd was 3.3 nM.

And the Kd [2]?
Its Kd is 0.24 nM.

Does B9 bind [3]?
Result: binds

Does B9 bind [4]?
Result: binds

Does B9 bind [5]?
Result: binds

B10: chimera A-E57R-Fc (Eg1S YTE) (Fc fusion)
chain: B1 chain with K57R, D58R, A192L, A193L, A195G, M210Y, S212T, T214E, A392N
B10 was tested. Which Kd [1] did it give?
The Kd was 5.1 nM.

And the Kd [2]?
Its Kd is 0.33 nM.

Does B10 bind [3]?
Result: binds

Does B10 bind [4]?
Result: binds

Does B10 bind [5]?
Result: binds

B11: chimera A-E57K-Fc (Eg1S YTE) (Fc fusion)
chain: B1 chain with D58R, A192L, A193L, A195G, M210Y, S212T, T214E, A392N
Which results are given for B11?
binding result [6]: binds; binding result [7]: binds; Kd [1]: 4.3 nM; Kd [2]: 0.28 nM; binding result [3]: binds; binding result [4]: binds; binding result [5]: binds

B12: chimera A-E57R-Fc (Eg1S LALAGANA) (Fc fusion)
chain: B1 chain with K57R, D58R
What does the source list for B12?
Kd [1]: 4.6 nM; Kd [2]: 0.31 nM; binding result [3]: binds; binding result [4]: binds; binding result [5]: binds
